From paper PMC10711656, “RZZ‐Spindly and CENP‐E form an integrated platform to recruit dynein to the kinetochore corona” (The EMBO Journal, 2023)

B1: EGFP‐CENP‐E^2070C (domain or fragment, human, UniProt Q02224 2070-2701, looked up)
chain: RQNHQVKPEKRLLSDGQQHLTESLREKCSRIKELLKRYSEMDDHYECLNRLSLDLEKEIEFQKELSMRVKANLSLPYLQTKHIEKLFTANQRCSMEFHRIMKKLKYVLSYVTKIKEEQHESINKFEMDFIDEVEKQKELLIKIQHLQQDCDVPSRELRDLKLNQNMDLHIEEILKDFSESEFPSIKTEFQQVLSNRKEMTQFLEEWLNTRFDIEKLKNGIQKENDRICQVNNFFNNRIIAIMNESTEFEERSATISKEWEQDLKSLKEKNEKLFKNYQTLKTSLASGAQVNPTTQDNKNPHVTSRATQLTTEKIRELENSLHEAKESAMHKESKIIKMQKELEVTNDIIAKLQAKVHESNKCLEKTKETIQVLQDKVALGAKPYKEEIEDLKMKLVKIDLEKMKNAKEFEKEISATKATVEYQKEVIRLLRENLRRSQQAQDTSVISEHTDPQPSNKPLTCGGGSGIVQNTKALILKSEHIRLEKEISKLKQQNEQLIKQKNELLSNNQHLSNEVKTWKERTLKREAHKQVTCENSPKSPKVTGTASKKKQITPSQCKERNLQDPVPKESPKSCFFDSRSKSLPSPHPVRYFDNSSLGLCPEVQNAGAESVDSQPGPWHASSGKDVPECKTQ
notes: codon-optimised cDNA; The His6-EGFP tag is PreScission-cleavable, but no cleavage step is described; source: insect cells (biGBac; baculovirus from Sf9, expression in Tnao38), purified (HisTrap, Superdex 200); not shown: EGFP, N-terminal, kept
B2: EGFP‐CENP‐E^2366C (domain or fragment, human, UniProt Q02224 2366-2701, looked up)
chain: NKNPHVTSRATQLTTEKIRELENSLHEAKESAMHKESKIIKMQKELEVTNDIIAKLQAKVHESNKCLEKTKETIQVLQDKVALGAKPYKEEIEDLKMKLVKIDLEKMKNAKEFEKEISATKATVEYQKEVIRLLRENLRRSQQAQDTSVISEHTDPQPSNKPLTCGGGSGIVQNTKALILKSEHIRLEKEISKLKQQNEQLIKQKNELLSNNQHLSNEVKTWKERTLKREAHKQVTCENSPKSPKVTGTASKKKQITPSQCKERNLQDPVPKESPKSCFFDSRSKSLPSPHPVRYFDNSSLGLCPEVQNAGAESVDSQPGPWHASSGKDVPECKTQ
notes: source: E. coli BL21 (DE3) RP plus, purified (HisTrap FF, Superose 6); not shown: EGFP, N-terminal, kept

What was measured:
[1] = target: T1, ^mChRZZS filaments (mCherry-RZZ with prefarnesylated Spindly, polymerised with GST-MPS1) (UniProt P50748 1-2209; Q9H900 1-591; O43264 1-779; Q96EA4 1-605, incubated with GST-MPS1 (the paper says that MPS1 phosphorylates ROD on Thr13 and Ser15) | farnesylated (prefarnesylated)); assay: filament-binding assay (fluorescence microscopy); mCherry-RZZS filaments diluted 1:8, EGFP-CENP-E constructs added to 1 μM, flowed into a flow chamber and imaged; M-buffer (50 mM HEPES pH 7.5, 100 mM NaCl, 1 mM MgCl2, 1 mM TCEP); settings: both partners purified
T1 construct: ROD subunit of the ROD-Zwilch-ZW10 (RZZ) complex; Zwilch subunit of the RZZ complex; ZW10 subunit of the RZZ complex; Spindly, dynein-dynactin adaptor; no mCherry is named on the Spindly of the filaments; Filaments formed essentially as described by d'Amico et al (2022); source: mCherry-RZZ: biGBac system, purified as previously described; 4 μM mCherry-RZZ and 8 μM prefarnesylated Spindly …

[2] = target: T2, ^mCHRZZ^mChS rings (mCherry-RZZ with prefarnesylated mCherry-Spindly, polymerised with GST-MPS1) (UniProt P50748 1-2209; Q9H900 1-591; O43264 1-779; Q96EA4 1-605, incubated with GST-MPS1 (the paper says that MPS1 phosphorylates ROD on Thr13 and Ser15) | farnesylated (prefarnesylated)); assay: TIRF microscopy ring-binding assay; mCherry-RZZ/mCherry-Spindly rings (approximately 40 nM) held on the coverslip by anti-mCherry GST-tagged nanobody; EGFP-CENP-E constructs (10 nM) flowed in; A-buffer (50 mM HEPES pH 8, 200 mM NaCl, 2 mM TCEP, 0.1 mg/ml BSA); room temperature; settings: both partners purified
T2 construct: ROD subunit of the ROD-Zwilch-ZW10 (RZZ) complex; Zwilch subunit of the RZZ complex; ZW10 subunit of the RZZ complex; Spindly, dynein-dynactin adaptor; Constructs as in Sacristan et al, 2018, Raisch et al, 2022 and d'Amico et al, 2022; also called RZZS minicircles; RZZS rings; source: mCherry-RZZ: biGBac system, purified as previously described; mCherry-Spindly: Tnao38 insect cells, purified; 4 …
T2 sequence (P50748 whole entry, chain 1 of 4): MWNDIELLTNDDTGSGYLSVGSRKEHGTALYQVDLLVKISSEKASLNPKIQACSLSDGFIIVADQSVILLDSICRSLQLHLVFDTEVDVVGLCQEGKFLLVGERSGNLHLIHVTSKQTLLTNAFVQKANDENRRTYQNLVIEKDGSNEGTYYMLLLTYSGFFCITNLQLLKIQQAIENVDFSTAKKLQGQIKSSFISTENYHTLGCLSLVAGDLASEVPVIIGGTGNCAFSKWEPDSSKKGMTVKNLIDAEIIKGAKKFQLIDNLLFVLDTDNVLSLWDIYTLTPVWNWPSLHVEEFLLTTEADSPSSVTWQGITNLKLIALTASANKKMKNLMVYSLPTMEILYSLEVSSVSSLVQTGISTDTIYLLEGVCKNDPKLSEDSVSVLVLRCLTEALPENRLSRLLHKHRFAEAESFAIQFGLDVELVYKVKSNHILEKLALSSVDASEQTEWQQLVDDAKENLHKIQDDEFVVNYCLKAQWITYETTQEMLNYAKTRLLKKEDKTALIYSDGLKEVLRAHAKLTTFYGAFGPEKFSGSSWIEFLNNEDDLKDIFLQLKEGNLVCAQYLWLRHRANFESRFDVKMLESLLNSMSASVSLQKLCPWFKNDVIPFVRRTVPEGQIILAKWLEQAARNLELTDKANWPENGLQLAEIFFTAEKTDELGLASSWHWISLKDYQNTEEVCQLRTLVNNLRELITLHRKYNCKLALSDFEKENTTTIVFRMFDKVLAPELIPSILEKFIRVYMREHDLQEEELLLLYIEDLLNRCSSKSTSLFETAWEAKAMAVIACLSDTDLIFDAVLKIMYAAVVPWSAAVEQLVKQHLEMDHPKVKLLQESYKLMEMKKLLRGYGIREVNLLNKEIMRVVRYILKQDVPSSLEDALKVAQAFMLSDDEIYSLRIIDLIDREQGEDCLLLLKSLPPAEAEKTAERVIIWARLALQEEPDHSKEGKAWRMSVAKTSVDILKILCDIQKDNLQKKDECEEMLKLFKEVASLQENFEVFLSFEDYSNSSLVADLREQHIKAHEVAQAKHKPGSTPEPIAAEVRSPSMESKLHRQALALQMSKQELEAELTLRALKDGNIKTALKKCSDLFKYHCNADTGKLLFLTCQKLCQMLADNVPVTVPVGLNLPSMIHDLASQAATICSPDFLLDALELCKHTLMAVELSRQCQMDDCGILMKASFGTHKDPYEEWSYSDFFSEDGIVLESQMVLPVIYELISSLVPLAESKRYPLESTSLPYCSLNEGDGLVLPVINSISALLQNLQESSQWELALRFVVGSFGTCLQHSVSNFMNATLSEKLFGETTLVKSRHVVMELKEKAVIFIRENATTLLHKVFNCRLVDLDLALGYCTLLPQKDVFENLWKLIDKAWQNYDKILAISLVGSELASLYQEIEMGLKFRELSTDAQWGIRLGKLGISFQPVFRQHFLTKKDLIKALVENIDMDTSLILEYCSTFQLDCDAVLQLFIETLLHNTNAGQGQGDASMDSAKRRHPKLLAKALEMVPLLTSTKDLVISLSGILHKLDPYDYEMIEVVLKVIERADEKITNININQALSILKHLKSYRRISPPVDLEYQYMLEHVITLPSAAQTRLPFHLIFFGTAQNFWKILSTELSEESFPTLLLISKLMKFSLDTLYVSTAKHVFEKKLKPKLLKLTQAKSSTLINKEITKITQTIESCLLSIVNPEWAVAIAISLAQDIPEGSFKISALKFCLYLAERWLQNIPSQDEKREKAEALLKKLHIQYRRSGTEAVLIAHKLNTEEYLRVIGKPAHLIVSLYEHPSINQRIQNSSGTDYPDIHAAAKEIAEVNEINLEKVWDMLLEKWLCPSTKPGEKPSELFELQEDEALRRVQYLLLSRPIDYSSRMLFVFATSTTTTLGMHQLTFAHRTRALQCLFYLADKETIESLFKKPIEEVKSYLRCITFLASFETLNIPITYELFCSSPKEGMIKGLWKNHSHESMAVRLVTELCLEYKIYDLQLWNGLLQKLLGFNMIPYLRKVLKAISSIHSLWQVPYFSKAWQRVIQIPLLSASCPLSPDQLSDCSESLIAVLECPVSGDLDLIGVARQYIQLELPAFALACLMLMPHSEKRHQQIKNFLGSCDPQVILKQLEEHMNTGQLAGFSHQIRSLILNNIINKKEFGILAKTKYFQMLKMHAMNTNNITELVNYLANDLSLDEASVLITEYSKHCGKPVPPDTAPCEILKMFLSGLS
T2 sequence (Q9H900 whole entry, chain 2 of 4): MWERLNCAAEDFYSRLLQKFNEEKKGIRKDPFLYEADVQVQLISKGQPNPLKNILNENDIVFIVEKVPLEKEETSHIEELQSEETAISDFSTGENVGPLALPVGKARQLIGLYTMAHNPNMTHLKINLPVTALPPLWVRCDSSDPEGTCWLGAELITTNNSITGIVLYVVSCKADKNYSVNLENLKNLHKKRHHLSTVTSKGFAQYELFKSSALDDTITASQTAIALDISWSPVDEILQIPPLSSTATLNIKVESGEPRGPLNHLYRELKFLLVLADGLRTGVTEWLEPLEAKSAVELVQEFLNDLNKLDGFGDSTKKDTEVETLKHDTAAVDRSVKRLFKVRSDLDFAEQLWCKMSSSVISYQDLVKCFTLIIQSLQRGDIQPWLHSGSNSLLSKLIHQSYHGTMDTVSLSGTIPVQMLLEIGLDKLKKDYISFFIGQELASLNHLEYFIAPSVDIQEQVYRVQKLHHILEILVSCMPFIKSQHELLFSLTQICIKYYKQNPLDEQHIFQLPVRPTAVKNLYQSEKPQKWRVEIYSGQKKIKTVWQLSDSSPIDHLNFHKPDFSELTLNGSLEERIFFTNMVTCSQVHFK
T2 sequence (O43264 whole entry, chain 3 of 4): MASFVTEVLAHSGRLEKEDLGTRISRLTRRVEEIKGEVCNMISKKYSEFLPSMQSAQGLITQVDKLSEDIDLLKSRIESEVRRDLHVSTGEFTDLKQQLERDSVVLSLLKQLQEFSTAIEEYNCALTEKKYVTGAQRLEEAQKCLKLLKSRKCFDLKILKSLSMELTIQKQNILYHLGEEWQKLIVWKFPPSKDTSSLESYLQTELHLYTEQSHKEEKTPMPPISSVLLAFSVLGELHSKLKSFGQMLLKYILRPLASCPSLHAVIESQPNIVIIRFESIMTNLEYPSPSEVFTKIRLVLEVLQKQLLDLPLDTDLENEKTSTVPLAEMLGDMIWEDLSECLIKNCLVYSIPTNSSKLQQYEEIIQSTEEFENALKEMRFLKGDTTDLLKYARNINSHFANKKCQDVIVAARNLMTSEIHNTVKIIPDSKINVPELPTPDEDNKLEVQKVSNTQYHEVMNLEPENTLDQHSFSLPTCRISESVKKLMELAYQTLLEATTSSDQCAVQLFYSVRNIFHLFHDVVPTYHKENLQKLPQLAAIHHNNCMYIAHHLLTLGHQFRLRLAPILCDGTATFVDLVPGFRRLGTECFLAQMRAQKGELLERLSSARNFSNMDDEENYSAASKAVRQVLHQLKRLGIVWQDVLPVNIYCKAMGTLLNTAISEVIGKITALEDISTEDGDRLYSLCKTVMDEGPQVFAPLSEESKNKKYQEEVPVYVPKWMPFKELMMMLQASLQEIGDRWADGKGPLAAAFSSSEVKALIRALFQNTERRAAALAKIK
T2 sequence (Q96EA4 whole entry, chain 4 of 4): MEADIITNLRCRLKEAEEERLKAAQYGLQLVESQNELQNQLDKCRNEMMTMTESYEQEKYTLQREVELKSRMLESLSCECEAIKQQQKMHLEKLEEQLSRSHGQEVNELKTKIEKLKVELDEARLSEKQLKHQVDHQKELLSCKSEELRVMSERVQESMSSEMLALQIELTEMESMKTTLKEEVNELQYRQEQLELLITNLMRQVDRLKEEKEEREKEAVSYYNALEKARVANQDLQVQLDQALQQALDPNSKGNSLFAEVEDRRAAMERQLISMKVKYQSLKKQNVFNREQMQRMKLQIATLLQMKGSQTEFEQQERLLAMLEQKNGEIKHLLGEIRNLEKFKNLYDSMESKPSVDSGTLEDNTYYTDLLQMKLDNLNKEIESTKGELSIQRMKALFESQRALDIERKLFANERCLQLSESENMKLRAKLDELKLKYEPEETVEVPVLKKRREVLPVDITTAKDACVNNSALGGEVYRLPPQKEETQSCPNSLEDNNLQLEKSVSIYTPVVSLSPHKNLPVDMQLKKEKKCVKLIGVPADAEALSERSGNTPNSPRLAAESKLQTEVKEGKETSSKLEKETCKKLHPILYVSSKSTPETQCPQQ

T1 sequence (P50748 whole entry, chain 1 of 4): as the sequence (P50748 whole entry, chain 1 of 4) above
T1 sequence (Q9H900 whole entry, chain 2 of 4): as the sequence (Q9H900 whole entry, chain 2 of 4) above
T1 sequence (O43264 whole entry, chain 3 of 4): as the sequence (O43264 whole entry, chain 3 of 4) above
T1 sequence (Q96EA4 whole entry, chain 4 of 4): as the sequence (Q96EA4 whole entry, chain 4 of 4) above

Row | Binder | binding result [1] | binding result [2]
1 | B1 | binds | binds
2 | B2 | – | binds
